Measured values from IntAct's records for PubMed 27905398.

B1: Zinc finger CCHC domain-containing protein 8 (Homo sapiens), Q6NZY4 (parent)
chain: MAAEVYFGDLELFEPFDHPEESIPKPVHTRFKDDDGDEEDENGVGDAELRERLRQCEETIEQLRAENQELKRKLNILTRPSGILVNDTKLDGPILQILFMNNAISKQYHQEIEEFVSNLVKRFEEQQKNDVEKTSFNLLPQPSSIVLEEDHKVEESCAIKNNKEAFSVVGSVLYFTNFCLDKLGQPLLNENPQLSEGWEIPKYHQVFSHIVSLEGQEIQVKAKRPKPHCFNCGSEEHQMKDCPMPRNAARISEKRKEYMDACGEANNQNFQQRYHAEEVEERFGRFKPGVISEELQDALGVTDKSLPPFIYRMRQLGYPPGWLKEAELENSGLALYDGKDGTDGETEVGEIQQNKSVTYDLSKLVNYPGFNISTPRGIPDEWRIFGSIPMQACQQKDVFANYLTSNFQAPGVKSGNKRSSSHSSPGSPKKQKNESNSAGSPADMELDSDMEVPHGSQSSESFQFQPPLPPDTPPLPRGTPPPVFTPPLPKGTPPLTPSDSPQTRTASGAVDEDALTLEELEEQQRRIWAALEQAESVNSDSDVPVDTPLTGNSVASSPCPNELDLPVPEGKTSEKQTLDEPEVPEIFTKKSEAGHASSPDSEVTSLCQKEKAELAPVNTEGALLDNGSVVPNCDISNGGSQKLFPADTSPSTATKIHSPIPDMSKFATGITPFEFENMAESTGMYLRIRSLLKNSPRNQQKNKKASE
partner: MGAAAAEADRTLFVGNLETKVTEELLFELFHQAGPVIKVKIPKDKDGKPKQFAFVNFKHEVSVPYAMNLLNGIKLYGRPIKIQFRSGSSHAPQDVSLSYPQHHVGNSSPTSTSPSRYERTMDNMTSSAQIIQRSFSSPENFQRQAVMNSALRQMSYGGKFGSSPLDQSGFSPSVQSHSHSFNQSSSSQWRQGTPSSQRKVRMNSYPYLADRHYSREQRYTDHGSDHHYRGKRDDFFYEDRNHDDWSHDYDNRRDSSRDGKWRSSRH
B2: RNA-binding protein 7 (Homo sapiens), Q9Y580 (parent)
chain: B1 partner
partner: B1 chain

Variants of: B1
Conditions: with rbm7_human RBM7, Q9Y580

Variant	effect of a mutation on the interaction
L295E;L299E	disrupting interaction strength
F309A;M313E	disrupting interaction strength

Variants of: B2
Conditions: with zchc8_human ZCCHC8, Q6NZY4

Variant	effect of a mutation on the interaction
L25E;L29E	decreasing interaction strength
Y65A;L69E	decreasing interaction strength
